Results: PMC6479498 (Molecules, 2019)

What was measured:
[1] = target: T1, AT-ATA (WT-AT), (R)-selective amine transaminase (Aspergillus terreus, UniProt Q0C8G1); experiment: acetophenone formation at […] nm; format: biochemical; conditions: 2.5 mM (R)-α-MBA, 0.1 mM PLP, 0.25% DMSO, 50 mM sodium phosphate pH 8.0; read-out: Km^pyruvate
T1 construct: gene ATEG_10023
T1 sequence (Q0C8G1 1-325): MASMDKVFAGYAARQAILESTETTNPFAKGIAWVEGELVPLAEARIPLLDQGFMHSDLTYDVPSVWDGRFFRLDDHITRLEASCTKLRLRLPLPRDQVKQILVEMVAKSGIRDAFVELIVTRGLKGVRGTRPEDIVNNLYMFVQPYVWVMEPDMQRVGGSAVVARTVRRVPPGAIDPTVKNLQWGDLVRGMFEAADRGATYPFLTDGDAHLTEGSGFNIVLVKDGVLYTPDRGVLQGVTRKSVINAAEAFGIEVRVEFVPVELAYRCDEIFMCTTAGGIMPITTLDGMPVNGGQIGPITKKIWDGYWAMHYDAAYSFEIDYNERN

CC(=O)C(=O)O = experiment: purified protein; format: biochemical, Aspergillus terreus; conditions: 2.5 mM (R)-α-MBA, 0.1 mM PLP, 0.25% DMSO, 50 mM sodium phosphate pH 8.0
C[C@@H](N)c1ccccc1 = experiment: purified protein; format: biochemical, Aspergillus terreus; conditions: 2.5 mM pyruvate, 0.1 mM PLP, 0.25% DMSO, 50 mM sodium phosphate pH 8.0

| Compound | Km [1] | Km (CC(=O)C(=O)O) | kcat (CC(=O)C(=O)O) | kcat/Km (CC(=O)C(=O)O) | Km (C[C@@H](N)c1ccccc1) | kcat (C[C@@H](N)c1ccccc1) | kcat/Km (C[C@@H](N)c1ccccc1) |
| --- | --- | --- | --- | --- | --- | --- | --- |
| CC(=O)C(=O)O [pyruvate] | 230 ± 20 µM | – | – | – | – | – | – |
| AT-ATA (WT-AT), (R)-selective amine transaminase (Aspergillus terreus NIH2624; L118A) | – | 360 ± 50 µM | 1.48 ± 0.05 s⁻¹ | 4150 M⁻¹ s⁻¹ | 180 ± 10 µM | 1.46 ± 0.01 s⁻¹ | 7930 M⁻¹ s⁻¹ |
| AT-ATA (WT-AT), (R)-selective amine transaminase (Aspergillus terreus NIH2624; L118I) | – | 280 ± 20 µM | 0.82 ± 0.01 s⁻¹ | 2950 M⁻¹ s⁻¹ | 130 ± 10 µM | 0.82 ± 0.01 s⁻¹ | 6400 M⁻¹ s⁻¹ |
| AT-ATA (WT-AT), (R)-selective amine transaminase (Aspergillus terreus NIH2624; L118T) | – | 400 ± 20 µM | – | – | 180 ± 10 µM | 1.79 ± 0.02 s⁻¹ | 9980 M⁻¹ s⁻¹ |
| AT-ATA (WT-AT), (R)-selective amine transaminase (Aspergillus terreus NIH2624; L118V) | – | 290 ± 20 µM | 0.51 ± 0.01 s⁻¹ | 1760 M⁻¹ s⁻¹ | 160 ± 10 µM | 0.57 ± 0.01 s⁻¹ | 3570 M⁻¹ s⁻¹ |
